T1: NY-ESO-1 peptide on HLA-A*02:01 (human)
T1 peptide: SLLMWITQC


Key:
[1] = biological target: T1, NY-ESO-1 peptide on HLA-A*02:01; experiment: multimer staining
[2] = biological target: T1, NY-ESO-1 peptide on HLA-A*02:01; experiment: activation reporter or marker

Binder	binding result [1]	binding result [2]
NY7JSY (TCR, V domains shown) Valpha: QKEVEQNSGPLSVPEGAIASLNCTYSDRGSQSFFWYRQYSGKSPELIMFIYSNGDKEDGRFTAQLNKASQYVSLLIRDSQPSDSATYLCAVMRAGGFKTIFGAGTRLFVKA Vbeta: DSGVTQTPKHLITATGQRVTLRCSPRSGDLSVYWYQQSLDQGLQFLIQYYNGEERAKGNILERFSAQQFPDLHSELNLSSLELGDSALYFCASSVVDGEQYFGPGTRLTVT	recognises	
NY7 variant TCR ID 5 (Table A) (TCR, V domains shown) Valpha: QKEVEQNSGPLSVPEGAIASLNCTYSDRWSQSFFWYRQYSGKSPELIMFIYSNGDKEDGRFTAQLNKASQYVSLLIRDSQPSDSATYLCAVMRAGGFKTIFGAGTRLFVKA Vbeta: DSGVTQTPKHLITATGQRVTLRCSPRSGDLSVYWYQQSLDQGLQFLIQYYNGEERAKGNILERFSAQQFPDLHSELNLSSLELGDSALYFCASSVVDGEQYFGPGTRLTVT		recognises
